Tests used:
[1] = molecular target: T1, DdrOC (DdrO) (Deinococcus deserti) (UniProt C1CYP4); assay: EMSA; conditions: EMSA: 10 mM Tris-HCl pH 7.4, 60 mM NaCl, 1 mM DTT, 5% glycerol, 200 ng DNA in 20 ul, 30 min room temperature; 5% PAGE in TAE at 4 C, ethidium bromide
T1 sequence: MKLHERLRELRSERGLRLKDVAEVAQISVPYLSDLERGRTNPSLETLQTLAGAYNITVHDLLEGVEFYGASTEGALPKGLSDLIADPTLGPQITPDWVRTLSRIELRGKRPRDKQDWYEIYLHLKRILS

[2] = molecular target: T2, DdrOC cleaved by IrrE (Deinococcus deserti) (UniProt C1CYP4); assay: EMSA; conditions: EMSA: 10 mM Tris-HCl pH 7.4, 60 mM NaCl, 1 mM DTT, 5% glycerol, 200 ng DNA in 20 ul, 30 min room temperature; 5% PAGE in TAE at 4 C, ethidium bromide
T2 sequence: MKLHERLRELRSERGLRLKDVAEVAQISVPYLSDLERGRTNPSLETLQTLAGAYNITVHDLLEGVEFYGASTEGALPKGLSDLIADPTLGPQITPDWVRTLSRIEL

Question: Which results are given for “TATAGGTACCGGTACTCCTTCCTGTCCGACAGCAGACAGCGAGGCAAAGCATGAATAGTCGGTCTTAAGGGGGTAAAAGCCTTCTTGATTACGATCATAGCAGATCGTCTCGTGGTGGGCAAGAAGAACTCCTCTCTATTCTGTATTGACCGTACCGGGAAGCGGTGTTACACTCCAACCAAGGGTGCCCGATTCTGCCTACAGGCAAACGCTCCCCCAGGCGGCCCGCCCGGTCAGCGCACAGTCCCGGTCGCTCAAAGCTGCAGTATC (double strand) [ddrOC-ddrQ intergenic region]”?
Answer: binding [1]: binds; binding [2]: no binding

Source: article PMC5552922
